In PMC12203913, “XPC-RAD23B enhances UV-DDB binding to DNA to facilitate lesion search in nucleotide excision repair” (Nucleic Acids Research, 2025):
Where a chain is given by its changes, count along the chain named.

Experiments:
[1] = target: T1, UV-DDB (DDB1-DDB2);XPC-RAD23B (Homo sapiens;Homo sapiens, UniProt Q16531;Q92466;Q01831;P54727 1-1140;1-427;1-940;1-409, |); assay: single-molecule DNA curtain; details: 0.2 nM UV-DDB, 0.4 nM XPC-RAD23B, 3-fold more at CPD sites than random sites, three CPDs around 33.5 kbp (33513-33630), EMSA: 50 mM Tris-HCl pH 7.5, 100 mM NaCl, 0.1 mg/ml BSA, 1 mM DTT, 23°C, 45 min, DNA curtains: 10 mM Tris-HCl pH 8.0, 1 mM EDTA, 0.16% BSA, 0-100 mM …
[2] = target: UV-DDB (heterodimer of DDB1 and DDB2) (human, UniProt Q16531 1-1140; Q92466 1-427); assay: cell-based or functional assay
[3] = target: T1, UV-DDB (DDB1-DDB2);XPC-RAD23B; assay: EMSA; 2 nM XPC-RAD23B, UV-DDB titrated, 10 nM DNA; EMSA: 50 mM Tris-HCl pH 7.5, 100 mM NaCl, 0.1 mg/ml BSA, 1 mM DTT, 23°C, 45 min; DNA curtains: 10 mM Tris-HCl pH 8.0, 1 mM EDTA, 0.16% BSA, 1 mM DTT, 0-100 mM NaCl, 23°C; details: protein: recombinant;recombinant; tags: 3xHA at N-terminus of DDB1 (1xFLAG removed by PreScission);3xFLAG at N-terminus of XPC; copies: 1;1;1;1; label: 5'-FAM on strand 2; blunt; T21 of strand 1 faces T of strand 2 (T-T mismatch at the CPD)
XPC-RAD23B = XPC-RAD23B (Homo sapiens, UniProt Q01831;P54727 1-940;1-409); assay: EMSA; 4 nM DNA, no competitor; EMSA: 50 mM Tris-HCl pH 7.5, 100 mM NaCl, 0.1 mg/ml BSA, 1 mM DTT, 23°C, 45 min; DNA curtains: 10 mM Tris-HCl pH 8.0, 1 mM EDTA, 0.16% BSA, 1 mM DTT, 0-100 mM NaCl, 23°C; details: protein: recombinant, tags: 3xFLAG at N-terminus of XPC, copies: 1;1, label: 5'-FAM on strand 2, blunt
UV-DDB (DDB1-DDB2) = UV-DDB (DDB1-DDB2) (Homo sapiens, UniProt Q16531;Q92466 1-1140;1-427); assay: as above; details: protein: recombinant, tags: 3xHA at N-terminus of DDB1 (1xFLAG removed by PreScission), copies: 1;1, label: 5'-FAM on strand 2, blunt
[4] = target: T1, UV-DDB (DDB1-DDB2);XPC-RAD23B; assay: EMSA; 15 nM XPC-RAD23B, UV-DDB titrated, 10 nM DNA; co-bound band confirmed by native western; EMSA: 50 mM Tris-HCl pH 7.5, 100 mM NaCl, 0.1 mg/ml BSA, 1 mM DTT, 23°C, 45 min; DNA curtains: 10 mM Tris-HCl pH 8.0, 1 mM EDTA, 0.16% BSA, 1 mM DTT, 0-100 mM NaCl, 23°C; details: protein: recombinant;recombinant; tags: 3xHA at N-terminus of DDB1 (1xFLAG removed by PreScission);3xFLAG at N-terminus of XPC; copies: 1;1;1;1; label: 5'-FAM on strand 2; blunt; T21 of strand 1 faces T of strand 2 (T-T mismatch at the CPD)
[5] = target: T1, UV-DDB (DDB1-DDB2);XPC-RAD23B; assay: EMSA; 2 nM XPC-RAD23B increases UV-DDB binding; EMSA: 50 mM Tris-HCl pH 7.5, 100 mM NaCl, 0.1 mg/ml BSA, 1 mM DTT, 23°C, 45 min; DNA curtains: 10 mM Tris-HCl pH 8.0, 1 mM EDTA, 0.16% BSA, 1 mM DTT, 0-100 mM NaCl, 23°C; details: protein: recombinant;recombinant; tags: 3xHA at N-terminus of DDB1 (1xFLAG removed by PreScission);3xFLAG at N-terminus of XPC; copies: 1;1;1;1; label: 5'-FAM on strand 2; blunt
[6] = T21 of strand 1 faces T of strand 2 (T-T mismatch at the CPD)

T1 sequence (Q16531 whole entry, chain 1 of 2): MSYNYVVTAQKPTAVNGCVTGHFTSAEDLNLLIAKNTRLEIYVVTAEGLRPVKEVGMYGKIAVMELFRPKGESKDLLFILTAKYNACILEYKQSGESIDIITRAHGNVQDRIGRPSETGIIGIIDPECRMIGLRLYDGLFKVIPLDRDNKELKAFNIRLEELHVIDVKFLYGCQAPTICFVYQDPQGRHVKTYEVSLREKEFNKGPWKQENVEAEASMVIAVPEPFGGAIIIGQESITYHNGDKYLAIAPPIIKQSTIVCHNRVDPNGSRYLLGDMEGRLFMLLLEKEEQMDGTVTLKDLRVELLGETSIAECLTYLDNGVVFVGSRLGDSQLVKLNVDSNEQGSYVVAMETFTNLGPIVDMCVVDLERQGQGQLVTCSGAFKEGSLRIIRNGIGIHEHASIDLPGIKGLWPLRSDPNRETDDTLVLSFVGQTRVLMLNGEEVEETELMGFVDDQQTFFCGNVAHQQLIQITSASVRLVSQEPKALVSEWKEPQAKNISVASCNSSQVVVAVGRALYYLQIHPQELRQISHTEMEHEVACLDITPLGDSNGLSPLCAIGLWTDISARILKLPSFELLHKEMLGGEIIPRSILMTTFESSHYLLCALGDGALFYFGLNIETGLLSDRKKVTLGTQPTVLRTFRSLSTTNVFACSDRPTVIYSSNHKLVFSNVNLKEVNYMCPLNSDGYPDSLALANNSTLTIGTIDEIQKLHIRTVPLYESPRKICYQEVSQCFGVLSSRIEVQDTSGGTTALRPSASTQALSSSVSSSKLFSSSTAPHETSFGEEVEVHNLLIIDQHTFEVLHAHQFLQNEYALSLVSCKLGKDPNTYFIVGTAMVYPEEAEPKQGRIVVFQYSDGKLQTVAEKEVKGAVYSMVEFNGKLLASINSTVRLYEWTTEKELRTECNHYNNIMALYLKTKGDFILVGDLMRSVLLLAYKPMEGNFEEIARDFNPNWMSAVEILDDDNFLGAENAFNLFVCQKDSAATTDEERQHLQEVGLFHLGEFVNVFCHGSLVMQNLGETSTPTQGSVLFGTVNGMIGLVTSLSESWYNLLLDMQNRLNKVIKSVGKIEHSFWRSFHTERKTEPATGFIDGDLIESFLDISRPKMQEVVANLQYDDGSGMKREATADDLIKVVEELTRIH
T1 sequence (Q92466 whole entry, chain 2 of 2): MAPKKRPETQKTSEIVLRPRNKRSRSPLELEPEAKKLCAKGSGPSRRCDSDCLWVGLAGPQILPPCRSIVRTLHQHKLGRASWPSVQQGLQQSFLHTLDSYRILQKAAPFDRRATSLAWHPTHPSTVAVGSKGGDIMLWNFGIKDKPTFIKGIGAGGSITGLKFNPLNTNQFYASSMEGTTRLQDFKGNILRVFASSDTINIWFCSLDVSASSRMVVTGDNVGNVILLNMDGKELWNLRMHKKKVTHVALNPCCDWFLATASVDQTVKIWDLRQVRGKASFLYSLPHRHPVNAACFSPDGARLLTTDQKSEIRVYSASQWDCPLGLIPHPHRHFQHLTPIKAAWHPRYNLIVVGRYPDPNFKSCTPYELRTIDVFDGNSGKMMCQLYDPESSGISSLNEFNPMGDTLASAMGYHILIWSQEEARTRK
UV-DDB (DDB1-DDB2), sequence (Q16531 whole entry, chain 1 of 2): as the sequence (Q16531 whole entry, chain 1 of 2) above
UV-DDB (DDB1-DDB2), sequence (Q92466 whole entry, chain 2 of 2): as the sequence (Q92466 whole entry, chain 2 of 2) above
UV-DDB (heterodimer of DDB1 and DDB2), sequence (Q16531 whole entry, chain 1 of 2): as the sequence (Q16531 whole entry, chain 1 of 2) above
UV-DDB (heterodimer of DDB1 and DDB2), sequence (Q92466 whole entry, chain 2 of 2): as the sequence (Q92466 whole entry, chain 2 of 2) above

**Q.** Which binding signal (fold bound UV-DDB vs no XPC-RAD23B) [1] does the source give for 3x CPD λ-DNA (λ-I3) here?
**A.** 5.5

B1: XPC-RAD23B (complex, human)
chain 1: MARKRAAGGEPRGRELRSQKSKAKSKARREEEEEDAFEDEKPPKKSLLSKVSQGKRKRGCSHPGGSADGPAKKKVAKVTVKSENLKVIKDEALSDGDDLRDFPSDLKKAHHLKRGATMNEDSNEEEEESENDWEEVEELSEPVLGDVRESTAFSRSLLPVKPVEIEIETPEQAKTRERSEKIKLEFETYLRRAMKRFNKGVHEDTHKVHLLCLLANGFYRNNICSQPDLHAIGLSIIPARFTRVLPRDVDTYYLSNLVKWFIGTFTVNAELSASEQDNLQTTLERRFAIYSARDDEELVHIFLLILRALQLLTRLVLSLQPIPLKSATAKGKKPSKERLTADPGGSSETSSQVLENHTKPKTSKGTKQEETFAKGTCRPSAKGKRNKGGRKKRSKPSSSEEDEGPGDKQEKATQRRPHGRERRVASRVSYKEESGSDEAGSGSDFELSSGEASDPSDEDSEPGPPKQRKAPAPQRTKAGSKSASRTHRGSHRKDPSLPAASSSSSSSKRGKKMCSDGEKAEKRSIAGIDQWLEVFCEQEEKWVCVDCVHGVVGQPLTCYKYATKPMTYVVGIDSDGWVRDVTQRYDPVWMTVTRKCRVDAEWWAETLRPYQSPFMDREKKEDLEFQAKHMDQPLPTAIGLYKNHPLYALKRHLLKYEAIYPETAAILGYCRGEAVYSRDCVHTLHSRDTWLKKARVVRLGEVPYKMVKGFSNRARKARLAEPQLREENDLGLFGYWQTEEYQPPVAVDGKVPRNEFGNVYLFLPSMMPIGCVQLNLPNLHRVARKLDIDCVQAITGFDFHGGYSHPVTDGYIVCEEFKDVLLTAWENEQAVIERKEKEKKEKRALGNWKLLAKGLLIRERLKRRYGPKSEAAAPHTDAGGGLSSDEEEGTSSQAEAARILAASWPQNREDEEKQKLKGGPKKTKREKKAAASHLFPFEQL
chain 2: MQVTLKTLQQQTFKIDIDPEETVKALKEKIESEKGKDAFPVAGQKLIYAGKILNDDTALKEYKIDEKNFVVVMVTKPKAVSTPAPATTQQSAPASTTAVTSSTTTTVAQAPTPVPALAPTSTPASITPASATASSEPAPASAAKQEKPAEKPAETPVATSPTATDSTSGDSSRSNLFEDATSALVTGQSYENMVTEIMSMGYEREQVIAALRASFNNPDRAVEYLLMGIPGDRESQAVVDPPQAASTGAPQSSAVAAAAATTTATTTTTSSGGHPLEFLRNQPQFQQMRQIIQQNPSLLPALLQQIGRENPQLLQQISQHQEHFIQMLNEPVQEAGGQGGGGGGGSGGIAEAGSGHMNYIQVTPQEKEAIERLKALGFPEGLVIQAYFACEKNENLAANFLLQQNFDED
**Q.** With B1 as the molecule, how does the “EMSA: binding of UV-DDB (0-25 nM) to DNA with 15 nM XPC-RAD23B against none” value [2] read?
**A.** ~4 fold

B2: CPD-containing 39 bp DNA (λ-I3_CPD / λ-I3_comp_FAM) (dsDNA)
DNA 1: TGCATGCGGCCGCTCTTCCCTTGGTGCGATCGCTCTTCG
DNA 2: CGAAGAGCGATCGCACCATGGGAAGAGCGGCCGCATGCA
modifications: cyclobutane pyrimidine dimer T21^T22 in strand 1; 5'-phosphate on strand 1
**Q.** How did the binding signal [3] turn out when B2 was run?
**A.** 2.5 fold UV-DDB affinity vs no XPC-RAD23B

**Q.** And the Kd (XPC-RAD23B; [6])?
**A.** ~7 nM

**Q.** What about the Kd (UV-DDB (DDB1-DDB2); [6]) of the same molecule?
**A.** ~5 nM

**Q.** What about the binding signal [4] of the same molecule?
**A.** ~4 fold UV-DDB binding vs no XPC-RAD23B

B3: undamaged 39 bp DNA (λ-I3_Dup / λ-I3_comp_FAM) (dsDNA)
DNA 1: B2 DNA 1 with T21A
DNA 2: B2 DNA 2
modifications: 5'-phosphate on strand 1
**Q.** For B3, which Kd (XPC-RAD23B) is on record?
**A.** ~9 nM

**Q.** What about the Kd (UV-DDB (DDB1-DDB2)) of the same molecule?
**A.** ~26 nM

**Q.** Does B3 bind [5]?
**A.** binds
